This note sets out measurements from patent US20210170043A1, “DC-SIGN ANTIBODY CONJUGATES COMPRISING STING AGONISTS” (NOVARTIS AG, priority 2018, published 2021).

Positions count from the first letter of the chain named. In names and notes the source's numbering stands.

First the molecules themselves.
T1: human DC-SIGN (Homo sapiens, UniProt Q9NNX6)
T1 construct: expressed in transfected cells
T1 sequence (Q9NNX6 1-404): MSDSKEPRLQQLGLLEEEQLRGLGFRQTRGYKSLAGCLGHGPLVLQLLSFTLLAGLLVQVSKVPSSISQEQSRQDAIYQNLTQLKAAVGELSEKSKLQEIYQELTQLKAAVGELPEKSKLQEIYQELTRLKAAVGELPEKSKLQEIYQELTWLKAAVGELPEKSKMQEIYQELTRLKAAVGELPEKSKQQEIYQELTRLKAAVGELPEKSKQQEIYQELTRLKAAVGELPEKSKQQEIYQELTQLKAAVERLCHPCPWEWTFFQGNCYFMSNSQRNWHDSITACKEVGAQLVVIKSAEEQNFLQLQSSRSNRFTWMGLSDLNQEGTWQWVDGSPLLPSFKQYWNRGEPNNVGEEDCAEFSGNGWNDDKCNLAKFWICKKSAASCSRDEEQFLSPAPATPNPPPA

T2: human L-SIGN (Homo sapiens, UniProt Q9H2X3)
T2 construct: expressed in transfected cells; host or cells: K562, retroviral transduction
T2 sequence (Q9H2X3 1-399): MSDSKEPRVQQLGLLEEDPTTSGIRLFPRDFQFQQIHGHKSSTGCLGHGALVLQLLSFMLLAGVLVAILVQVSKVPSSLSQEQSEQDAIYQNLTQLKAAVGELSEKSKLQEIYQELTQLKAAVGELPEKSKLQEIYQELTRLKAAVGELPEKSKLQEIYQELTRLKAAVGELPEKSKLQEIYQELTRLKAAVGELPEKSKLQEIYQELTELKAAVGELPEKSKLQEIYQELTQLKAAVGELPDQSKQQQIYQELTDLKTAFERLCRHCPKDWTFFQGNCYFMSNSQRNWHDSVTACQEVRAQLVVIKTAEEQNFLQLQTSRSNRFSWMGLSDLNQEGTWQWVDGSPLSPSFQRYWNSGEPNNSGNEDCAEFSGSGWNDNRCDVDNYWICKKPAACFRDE

B1: 1G12 Hz: humanized VL and VH domains of antibody 1G12 (antibody)
heavy: QVQLQESGPGLVKPSETLSLTCTVSGFSLTNYGVHWIRQPPGKGLEWIGVIWRGESTDYNAAFMSRVTISKDDSKSQVSLKLSSVTAADTAVYYCARNGGSSGWYFDVWGQGTTVTVSSASTKGPSVFPLAPSSKSTSGGTAALGCLVKDYFPCPVTVSWNSGALTSGVHTFPAVLQSSGLYSLSSVVTVPSSSLGTQTYICNVNHKPSNTKVDKRVEPKSCDKTHTCPPCPAPELLGGPSVFLFPPKPKDTLMISRTPEVTCVVVAVSHEDPEVKFNWYVDGVEVHNAKTKPREEQYNSTYRVVSVLTVLHQDWLNGKEYKCKVSNKALAAPIEKTISKAKGQPREPQVYTLPPSREEMTKNQVSLTCLVKGFYPCDIAVEWESNGQPENNYKTTPPVLDSDGSFFLYSKLTVDKSRWQQGNVFSCSVMHEALHNHYTQKSLSLSPGK
light: DIQLTQSPSFLSASVGDRVTITCKASQDVTSAVAWYQQKPGKAPKLLIYWTSTRHTGVPSRFSGSGSGTEYTLTISSLQPEDFATYYCQQHYTTPLTFGQGTKLEIKRTVAAPSVFIFPPSDEQLKSGTASVVCLLNNFYPREAKVQWKVDNALQSGNSQESVTEQDSKDSTYSLSSTLTLSKADYEKHKVYACEVTHQGLSSPVTKSFNRGEC
B2: 960K03 N92S: optimization of sequences by removal of post-translational modifications, non-preferred sites; substitutions made by site directed mutagenesis (antibody)
heavy: QVTLRESGPALVKPTQTLTLTCTFSGFSLSTGGMSVSWIRQPPGKALEWLALIDWDDDKYYSTSLKTRLTISKDTSKNQLVLTMTNMDPVDTATYYCARAHSGSYFDFWGQGTLVTVSSASTKGPSVFPLAPSSKSTSGGTAALGCLVKDYFPCPVTVSWNSGALTSGVHTFPAVLQSSGLYSLSSVVTVPSSSLGTQTYICNVNHKPSNTKVDKRVEPKSCDKTHTCPPCPAPELLGGPSVFLFPPKPKDTLMISRTPEVTCVVVAVSHEDPEVKFNWYVDGVEVHNAKTKPREEQYNSTYRVVSVLTVLHQDWLNGKEYKCKVSNKALAAPIEKTISKAKGQPREPQVYTLPPSREEMTKNQVSLTCLVKGFYPCDIAVEWESNGQPENNYKTTPPVLDSDGSFFLYSKLTVDKSRWQQGNVFSCSVMHEALHNHYTQKSLSLSPGK
light: DIQMTQSPSTLSASVGDRVTITCRASQRISNWLAWYQQKPGKAPKLLIYKASSLESGVPSRFSGSGSGTEFTLTISSLQPDDFATYYCQQFSSYWTFGQGTKVEIKRTVAAPSVFIFPPSDEQLKSGTASVVCLLNNFYPREAKVQWKVDNALQSGNSQESVTEQDSKDSTYSLSSTLTLSKADYEKHKVYACEVTHQGLSSPVTKSFNRGEC
B3: 952G04 N92Q: optimization of sequences by removal of post-translational modifications, non-preferred sites; substitutions made by site directed mutagenesis (antibody)
heavy: QVTLRESGPALVKPTQTLTLTCTFSGFSLSTSGVSVTWIRQPPGKALEWLALIDWDDDKYYSTSLKTRLAISKDTSKNQVVLTMTNMDPVDTATYYCARTPSGSYGRYFDLWGRGTLVTVSSASTKGPSVFPLAPSSKSTSGGTAALGCLVKDYFPCPVTVSWNSGALTSGVHTFPAVLQSSGLYSLSSVVTVPSSSLGTQTYICNVNHKPSNTKVDKRVEPKSCDKTHTCPPCPAPELLGGPSVFLFPPKPKDTLMISRTPEVTCVVVAVSHEDPEVKFNWYVDGVEVHNAKTKPREEQYNSTYRVVSVLTVLHQDWLNGKEYKCKVSNKALAAPIEKTISKAKGQPREPQVYTLPPSREEMTKNQVSLTCLVKGFYPCDIAVEWESNGQPENNYKTTPPVLDSDGSFFLYSKLTVDKSRWQQGNVFSCSVMHEALHNHYTQKSLSLSPGK
light: B2 light with R28S, N31T, K50E, F91Y, S92Q
B4: 952P16 N92Q: optimization of sequences by removal of post-translational modifications, non-preferred sites; substitutions made by site directed mutagenesis (antibody)
heavy: B3 heavy with T37S, A70T
light: B2 light with R28S, F91Y, S92Q
B5: 2B2 Chimeric: chimeric antibody chains comprising a murine variable region and human constant region (antibody)
heavy: EVQLQQSGAELVRPGSSVKMSCKTSGYTFTNYGINWVKQRPGQGLEWIGYIYIGNDYTEYNERFKGKATLTSDTSSSTAHIQLNSLTSEDSAIYFCARLYYGSSLYSYAMDYWGQGTSVTVSSASTKGPSVFPLAPSSKSTSGGTAALGCLVKDYFPCPVTVSWNSGALTSGVHTFPAVLQSSGLYSLSSVVTVPSSSLGTQTYICNVNHKPSNTKVDKRVEPKSCDKTHTCPPCPAPELLGGPSVFLFPPKPKDTLMISRTPEVTCVVVAVSHEDPEVKFNWYVDGVEVHNAKTKPREEQYNSTYRVVSVLTVLHQDWLNGKEYKCKVSNKALAAPIEKTISKAKGQPREPQVYTLPPSREEMTKNQVSLTCLVKGFYPCDIAVEWESNGQPENNYKTTPPVLDSDGSFFLYSKLTVDKSRWQQGNVFSCSVMHEALHNHYTQKSLSLSPGK
light: DIVMTQAAPSVSVTPGESVSISCRSSKSLLHSSGNTYLYWFLQRPGQSPQLLISRMSNLASGVPDRFSGSGSGTAFTLRISRVEAEDVGVYYCMQHLEYPYTFGGGTKLELKRTVAAPSVFIFPPSDEQLKSGTASVVCLLNNFYPREAKVQWKVDNALQSGNSQESVTEQDSKDSTYSLSSTLTLSKADYEKHKVYACEVTHQGLSSPVTKSFNRGEC

The target in the first assay is T1, human DC-SIGN. Kind of assay: FACS binding to CHO cells stably expressing human DC-SIGN. The settings on record: FACS MFI, average. Here is the method: (§1) The affinity of various antibodies and ADCs to DC-SIGN and its species orthologues was determined using FACS. Purified IgGs were titrated to determine EC50 values for binding to cell surface expressed DC-SIGN.
(§2) For this purpose, human DC-SIGN expressing or cynomolgus monkey DC-SIGN expressing stable CHO cell lines or K562 expressing DC-SIGN or K562 expressing L-SIGN cell lines were checked for density and viability using VICELL (Beckman Coulter), and washed once with 4° C. PBS. Cells were stained with DAPI (0.5 ug/mL) diluted in PBS for 30 min on ice. Cells were diluted into 4° C. FACS buffer (PBS, 10 mM EDTA, 2% FBS). 125 μl of cells were seeded (10,000 cells/well) into 96-well v-bottom plates (Nunc cat#442587) and centrifuged for 4 min at 1500 rpm at 4° C. Supernatant was removed. Cells were incubated with a serial dilution of each anti-DC-SIGN antibody in FACS buffer at concentrations ranging across several logs with a top concentration no higher than 50 μg/mL for 60 minutes at 4° C. Following incubation, cells were spun down (1500 rpm, 4 min, 4° C.) and washed two times with FACS buffer. A fluorophore-conjugated anti-hFc gamma-AF-647 (Southern Biotechnology) detection antibody was added at 1:400 and samples were incubated for 1 h on ice in the dark. Following incubation, FACS buffer was added, and the cells were spun down (1500 rpm, 4 min, 4° C.) and washed two times with FACS buffer. After the final wash, cells were resuspended in Fixative Buffer (Biolegend, 420801) and 90 μl of FACS buffer followed by readout on the flow cytometry machine (BD LSRFortessa Cell Analyzer; Cat #647177). Geometric Mean fluorescence intensity (MFI) of live, single cells was calculated in Flowjo 10.4.2 and exported into Graphpad Prism7 for EC50 determination.
For orientation: A flow cytometer gives signals particle by particle.
For B1, the “human DC-SIGN CHO EC50 (ug/mL) ave.” value is 0.07 µg/mL.
The same measure, in the same setting: the same measure for B2: 0.06 µg/mL.
In the case of B3, the “human DC-SIGN CHO EC50 (ug/mL) ave.” value is 0.07 µg/mL.

The next assay addresses T1, human DC-SIGN. Kind of assay: FACS binding to K562 cells expressing human DC-SIGN. The settings on record: FACS MFI. Here is the method: as §1, §2
Consider B1, for which the “human DC-SIGN K562 EC50” value came out at 0.021 µg/mL.
Consider B4, for which the “human DC-SIGN K562 EC50” value was determined as 0.024 µg/mL.
Still for that read-out and setting: as for B2, the figure is 0.049 µg/mL; as for B3, 0.017 µg/mL.

A further assay has as its target T2, human L-SIGN. Description: FACS binding to K562 cells expressing human L-SIGN (selectivity). Particulars: FACS MFI. Here is the method: as §1, §2
Selectivity was assessed by measuring apparent binding affinities to isogenic cell pairs engineered to overexpress DC-SIGN as well as cell lines expressing DC-SIGN paralog L-SIGN.
Take B1: the “human L-SIGN K562 EC50” value was more than 10 µg/mL.
On the same count and under the same terms, the same measure for B5: more than 10 µg/mL; for B4: more than 10 µg/mL; for B3: more than 10 µg/mL.

In the next assay the test system is cynomolgus monkey DC-SIGN. Description: FACS binding to CHO cells stably expressing cynomolgus monkey DC-SIGN. Particulars: FACS MFI, average. Here is the method: as §1, §2
cynomolgus monkey DC-SIGN, sequence (as listed by the source): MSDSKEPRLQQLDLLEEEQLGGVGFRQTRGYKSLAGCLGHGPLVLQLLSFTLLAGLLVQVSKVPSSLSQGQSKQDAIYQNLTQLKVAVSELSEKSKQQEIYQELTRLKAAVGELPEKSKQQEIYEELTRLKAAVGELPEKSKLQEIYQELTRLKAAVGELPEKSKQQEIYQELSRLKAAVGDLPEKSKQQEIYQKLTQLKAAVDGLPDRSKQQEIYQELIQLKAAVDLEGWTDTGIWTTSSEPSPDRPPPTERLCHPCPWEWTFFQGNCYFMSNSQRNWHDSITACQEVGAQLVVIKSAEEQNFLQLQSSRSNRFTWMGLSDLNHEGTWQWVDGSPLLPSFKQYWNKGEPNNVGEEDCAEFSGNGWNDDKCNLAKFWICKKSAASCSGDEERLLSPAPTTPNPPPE
In a similar experiment the antibodies were tested for cross-reactivity using engineered isogenic matched cell line.
B1: the “cyno DC-SIGN CHO EC50 (ug/mL) ave.” value came to 0.06 µg/mL.
On the same count and under the same terms, as for B2, the figure is 0.08 µg/mL; as for B3, 0.02 µg/mL.
